Measurements published in the DeepSol protein solubility set.

Test: soluble on expression in E. coli; label from the status in PepcDB or PDB records

Soluble on expression in E. coli, not soluble:
MGSDKIHHHHHHMDPRHRRGARLRHHQRDVARGGSVPARRQAHRRVARGLGEPVFVTHLVFFCGHAGTGKTTLAKRLIGPLMRATGEAFCLLDKDTLYGRYSSAAMGALTSDPNDRDSPLYLKHLRDPEYQGLLDTARENLALGIGALVVGPLSREVRDRRILDRAWLGIGPEIALTVVWVHTAEDVAHQRIVARGNPNDAYKLAHWDEYRQRRFVPTGHECDGIVMFDNTAPSDADIDALLYRIVPPAPQATMVPPLPA
MGSDKIHHHHHHMDQQTVLPEQDHDKSAIDELDFSCHSSGNFPGILAGLKLSLVVTSYQAHRLFFVRSNGIQIDVNFKNFVRPMGISVTPQQITLGTLNQVWRFRRSDDALALLDDPHADACYVASACHTTGLINIHDIAYGNKGLWVTNSAFSCLATLEPDYSFVPRWKPDFISALAPEDRCHLNGMALLDGEPAYVTTFNQSDTARSWRDGAKDQGTLINIKTGEQIFSNLTMPHSPRCYNGYVYFCESGHGLVRRYDPRTNEVVDVVKLAGFTRGMDFFGPLMFVGLSKTRFSSVAEPAPIAQQLEESQSGIWCINLTDHSVVGFVRFEGNIDQIYDVAVLSGVMYPELLLPDDELSMSVFNFPPLSYASEN
MGSDKIHHHHHHMDRRDFFKTVAITGAAMTIQRSEAMEILTQTINKANGDKPDLVAVMGGEPEAMFRRAISELGGMKQFIKPGQKVVVKPNIGWDKVPELAGNTNPKLITEIIKQCFATGAKEVTVFDHTCDDWQKCYKNSGIEAAAKEAGAKVMPAHLESYYKPVDLPKGQKMKKAKIHEAILNCDVWINVPILKNHGGANLTISMKNHMGIVWDRGFFHQNDLQQCIADICTLEKKAVLNVVDAYRIMKTNGPRGRSASDVVLAKGLFISPDIVAVDTAAAKFFNQIREMPLDTVGHLAKGEALKVGTMDIDKLNVKRIKM
MGSDKIHHHHHHMDRYPPFGFVRAVPIASSGNMTGESISNIATALVVGGGIGGMATAISLAERGVTVDLVDLDPEWRVYGAGITITGPTLRAYRRLGMLDEIKHKGAITSKTRLFRYDGTHMLDLDEPVIEEGLPATGGIMRPVLHHIMQKRVRELEIPVRLGLTVDALENVQGGVDVRFSDRTARRYDLVVGADSVFSRVRDLAFAHMGPAQPTGQGCWRISIRKPPGLDMGEFFLGHANPCGITACGPDTVYMWMLTPHVERDSHMDDEELFVTLKALLADFGGNAGWIRDNMTREDWINYRPLAAALQPRDWFNGRIVLVGDAVHATTPHLASGAGMAVESGIVLAEELARAGDVESALRAYQERRFDRCRDVIETSVAVGRLQLEHGDPQVHAKMLEGALGRLNQPF
MGSDKIHHHHHHMDSELRKRFNPDGSLLRRQQLRMLELLEVIDVICRKHQIPYWLSSGTLIGAARHKGFIPWDDDLDIEMLRSDYLRLLKVLPQELPDNLALQTNETDPNYIFIYGKLRDKDSHLEETNSYDRIFHYTGIYIDIFPLEKIPYCLAWIGGHMQGQIYNQLNNKNIKESTLYKRIRRIYHFNTRIGFPILRFIAKLFPGKELRHSFGTAYFKPRYTDDIFPLTEMEFEGKMFPVPRQTDAVLRKIYGDYMQLPDLENIHPHYNKLEFYK
MGSDKIHHHHHHMDSKSNSELARLEQAARAAWLYYVAKNTQDEIAQKLEVSRQSAQRLVALAVSEGLIKVRLDHPIVKCMELGQQLTQAFNLLECEIVPSDPADDSSVHGLAQCGAGVLERYLKSEQPKTLAFGTGRALKACIDELPSMQCPQHKIVSLLGNMMLDGSASAFDIVVSMANRVQAKHYPMPLPVIATSVAEKQLLHDLAPVKSIFELVIQADATFVGIGHMGAESPLLLDGFINQSQLTELINDNATGEIISWVYNQQGQLLDHSINELVMSSPLRIDSNKPVYGIAAGQHKVDAIFSALQGRLINSLITNEYTAERILAKLK
MGSDKIHHHHHHMDSLTELFCLIDDFCCQFEPALERRLLETGVKKRKRCSGLSLSELMTLTVLFHQLRFRQFKSFYLVYVCRHLQAEFPKLPSYQRCVELLPRCVAPLAALFEMLKGQCDGISIADATAIAVCDNRRIARHRVFADSARRGKTSMGWFYGFKLHAIINSRGELIRLRLTAGNVDDRKPMPDLCQGLFGQLFADKGYLAQWLTEALDQQNLQLITPLRKNMRPVPRTRFEKVILRRRSLIETVFDELKNLCQIEHTRHRSLFNFIVNLMAGIVAYCLSDNKPTLNLTRVNSLAKA
MGSDKIHHHHHHMDTQQLKVVSQQVQEQANFPPEFNRLLNELPDEVKHRIFPHLELVQLELGDVVCEAGSKVRYVYFPLNSIISLLYVMENGASAEIAVVGNDGMVGVALFMGGESTTSRAIVQSAGVAYRLFGQRLKDEFNRHGALLHLLLRYSQILLTQMAQTAVCNRHHSIEQQLCRWLLLSIDRLPDDRVMMTQELIANMLGVRREGVTDAAGKLQRIGIINYSRGNIEVLDRKLLEQTCCECYSVVKQESERLMPLKKFTKK
MGSDKIHHHHHHMDTQQLYFLNDIGKQKPESIRNRSAACPFCDRENLTDILATEGSIIWLKNKFPTLKDTFQTVLIETDNCEDHIATYTEEHMRSLIRFSIKHWLNLQKNEEFTSVILYKNHGPFSGGSLHHAHMQIIGMKYVNYLDNVEQDNFQGVIVQKNEHIELNISDRPIIGFTEFNIIIEDIGCIDELANYIQQTVRYILTDFHKGCSSYNLFFYYLNEKIICKVVPRFVVSPLYVGYKIPQVSTKIEDVKIQLAAYFTKQNDAIIHKKIE
MGSDKIHHHHHHMDTQRIKDDEDAIRSALTSLKTATGIPVTMFATVLQDNRLQITQWVGLRTPALQNLVIEPGVGVGGRVVATRRPVGVSDYTRANVISHEKDSAIQDEGLHSIVAVPVIVHREIRGVLYVGVHSAVRLGDTVIEEVTMTARTLEQNLAINSALRRNGVPDGRGSLKANRVMNGAEWEQVRSTHSKLRMLANRVTDEDLRRDLEELCDQMVTPVRIKQTTKLSARELDVLACVALGHTNVEAAEEMGIGAETVKSYLRSVMRKLGAHTRYEAVNAARRIGALP
MGSDKIHHHHHHMDTSSREHDLVIYGATGFVGRLIAVYIAEHAPAGMRVGLAGRSNSRLEAVRAELPAAAHGWALIEASSEDADSIAALAANTRVLFTTVGPYAKHGLPVVEACARAGTHYADLAGEVFFIREAIDCYDALARTSGARIVHSCGYDSVPSDLAVLLLHQAAEADGAGGLVEVQLEARARAGISGGTLESMRGQLDAMRSSTALRSLAADPYALSPDRTREPTTPQPPDAGPVRRSADGTWTAPFIMAPFNTRIVRRSNALQRWAYGRSLQYGEVMGVAPGPAGAVIPRAMALGLRAFTGAMAFPPTRKVLDRFLPAPGTGPSTSTQRAGWFHSQVTARTEDGQRYQAIAAGPGDPGYAATAVMAGETALALALDGDRLPTAKGSLTPATALGNVLIQRLRAAGHTYQVSKLA
MGSDKIHHHHHHMDVLTPTPLTYPYEASRPKMALIAEGGGQRGIFTAGVLDAWLDNDFDPFDLFIGTSAGSQNLTSFLSRQKGYAKRLIRGLSRHKRFYQLGRGLVGGNVVDLDWYFDKTTQGSFALDFTAAAKSLGQRELLITATNSRDRQGYFLRPNGDNDHWRELLKASSALPFLYKQGVKLAPWLTASAANQVHTNYDYPQADFYLDGGLAAPLPVREAYRRGARKIVVIRTVNADFHAQSAWVHKLKSWICVSGYCPKTIDYLAQHEQAYEQELAFIANPPDDVEIIQIFADDNLQSKLLGSTDMDLRHDYQTGITAGNAFLHTQKAFYSTHSLHAQPLLESLTIMQSMTA
MGSDKIHHHHHHMDVWLQLLQAEPELRSLTDWNRLATRYTDSPKYTARDASGVFIIHTAPLASLARKKREFELLQQLRHDGLPVPEPLDLKQISATAVCYSRYRFLTGKTIQACLPLCRDKAYRLGQETGRLLQWIHQHEVPRATEWAIRCLEKHKRYVALYQAERPLTDDSIILSFIERNIHLIAGRPNRLQHDDVHLGNLITDGEHLVGLIDFSNHDVGDPWHDFVKMGLFQVDDSIPFAVGQVDGYFARDVPELFWRVYSVYLAMACISSIVWTSRHAPEETDQMRRRFECAVPIWYATFDRT
MGSDKIHHHHHHMEASSGHQLMAETLGKFVSLVSKRLPDDVMAKLTELKGIETEPLAKSLYACMFENMEKAESLNRPTCQDTGVIQFFVRAGAKFPYLGELRGILKEATILSTKQAPLRLNAVEPFDEKNTGTNVGTKVPWIEWDIVSDDDSVEIEVYMAGGGCSLPGRSIVLPPLAGYEGAVKFVFDTIVEWGINACPPLTVGVGIGTCSTSAAKLSKMAMLRKLGSSNPHPRAAEMERRIQEGLDAIGLGPQGISGHRSVLGVHVEGMAHHPSVLGVGVTVGCWANRHGIIQFNKNLQYTMISHQGVEL
MGSDKIHHHHHHMEAYQFIKDYKAHDPYRKSFIQLAKRIFNIDFAPWYEQGFWNDNYICYSYVDKHEVIANVSVNKMELIINGAKQEAIQIGTVMTAPEYRRQGLAKQLLQKALDDYDSAYDLYFLAANQEAIPLYETCGFQLIEENCYEIDMAGYTLLDKPLRRADVSPEAMVEVKKGSCPLSTVLSAQGDEHILMFYYTAGFRDFIYQVNKDVHVMFQLEGDVLHLYDIFSPAKVNVEQLVEQIAPLATKTVVCHFTPDHSVKQLTAKIDSTSSWMVRTTTKGFPPLARFPKISQA
MGSDKIHHHHHHMECLLKTTSSVRFGSIHHPCECPANEACPFSIMSLFKRKAASSLETLALAKVGETVRKRLSADPGVYRIPLDDLEIFGVADFFSAEECAKLMAIVDSVARPSPTYSGTDASGRTSYTGDVDPFDPFVLMLQRRIDDLMGIDPSFGETIQGQRYAPGQEFRGHYDHFLPSQPFWDAEQKRGGQRSWTAMAYLNAVEEGGQTEFARVNLSIPPQPGALLIWNNMKPDGTPNANAMHAGMPVVRGTKYVLTKWYRSRPWH
MGSDKIHHHHHHMEEEAIVPEVLLDKAIELGLSFTGSTFPISIFPSEIRNIIAEVHECQGFPIDYIASAMLVAIAVGIGNTHLAELKRGWQESTMLYVALVGRPGTNKSHPLSFAMKPFLDFDYQENKLYERSYAEYDNIMRMNRKERIEGGFPDQPTEPMRKRFLVSDITPEGLSFIHAQNKRGLCLWTDELSAWFKNFNRYNSGSEEQFWLSVFSAKATISDRKGNRSSIFIKRPYISVVGTIQKKILGELSKGERSSNGFIDRILFVMPNLQQKARWSRTELPDDTEKRWGGIIRRLIDLPCAKDEEGEVTPEIIPFEEDAKARLYMWQEEHARLCDTEANEVLVGVYCKLEIYIIRFCLIIQLARWVCGESEKSAIDLTSVERAITLTEYFRHSAQQVHAEIAGVQLTQQQQQLLAELPASFQTAEALSIAQKLGMKERAFKDFLSRNIGHLFAKERHGLYHKLNM
MGSDKIHHHHHHMEEINKYIQNSSETGGEIYNLIEELFPICRSITGNGVRKTMDIIRKHIPLEIHEVKSGTKVFDWTVPKEWNIKDAYVRNSKGEKVIDFKENNLHVMSYSVPVHKTMTLDELKPYLHTIPGNKDRIPYLTSYYKENWGFSLTQNKFDELCDDDYEVVIDSSLEDGSLTYGEYYIRGELEEEILLTTYTCHPSMCNDNLSGVALITFIAKALSKLKTKYSYRFLFAPETIGSITWLSRNEDKLKNIKMGLVATCVGDAGIKNYKRTKFGDAEIDKIVEKVLMHCGSEYYVADFFPWGSDERQFSSPGINLSVGSLMRSCYGFDGYHTSADNLCYMNKDGLADSYKTYLEVIYTIENNRTYLNLNPKCEPQLGKRGIYRMIGGGSDYPFDEFAMFWVLNMSDGKNSLLDIAYKSGMEFRRIKYAADALYRVELLKLV
